Reference: US20240374744

B1: PrCP (prolylcarboxypeptidase) (enzyme, UniProt P42785 46-496, looked up, species assumed)
Lysosomal Pro-X carboxypeptidase: KNYSVLYFQQKVDHFGFNTVKTFNQRYLVADKYWKKNGGSILFYTGNEGDIIWFCNNTGFMWDVAEELKAMLVFAEHRYYGESLPFGDNSFKDSRHLNFLTSEQALADFAELIKHLKRTIPGAENQPVIAIGGSYGGMLAAWFRMKYPHMVVGALAASAPIWQFEDLVPCGVFMKIVTTDFRKSGPHCSESIHRSWDAINRLSNTGSGLQWLTGALHLCSPLTSQDIQHLKDWISETWVNLAMVDYPYASNFLQPLPAWPIKVVCQYLKNPNVSDSLLLQNIFQALNVYYNYSGQVKCLNISETATSSLGTLGWSYQACTEVVMPFCTNGVDDMFEPHSWNLKELSDDCFQQWGVRPRPSWITTMYGGKNISSHTNIVFSNGELDPWSGGGVTKDITDTLVAVTISEGAHHLDLRTKNALDPMSVLLARSLEVRHMKNWIRDFYDSAGKQH
B2: cathepsin H (enzyme, UniProt P09668 116-335, looked up, species assumed)
Cathepsin H: YPPSVDWRKKGNFVSPVKNQGACGSCWTFSTTGALESAIAIATGKMLSLAEQQLVDCAQDFNNHGCQGGLPSQAFEYILYNKGIMGEDTYPYQGKDGYCKFQPGKAIGFVKDVANITIYDEEAMVEAVALYNPVSFAFEVTQDFMMYRTGIYSSTSCHKTPDKVNHAVLAVGYGEKNGIPYWIVKNSWGPQWGMNGYFLIERGKNMCGLAACASYPIPLV

Tested on: huHF(+)-DOX (huHF(+) protein nanoparticle-doxorubicin conjugate)
Sequence (chain, as listed by the source): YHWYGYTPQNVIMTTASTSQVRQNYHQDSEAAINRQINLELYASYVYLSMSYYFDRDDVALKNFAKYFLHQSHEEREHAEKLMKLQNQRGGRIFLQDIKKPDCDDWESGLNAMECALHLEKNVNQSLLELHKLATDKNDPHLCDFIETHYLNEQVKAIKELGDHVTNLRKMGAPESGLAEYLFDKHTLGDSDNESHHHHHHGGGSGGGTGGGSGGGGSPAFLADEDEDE

| Protein | cleavage of the conjugate and release of doxorubicin (native-PAGE, UV absorbance), enzyme in LPM mixture |
| --- | --- |
| B1 | it was observed that the peptide was not specifically cleaved thereby the drug was not selectively released |
| B2 | it was observed that the peptide was not specifically cleaved thereby the drug was not selectively released |
